# System: Hirudin (Calbiochem 377853)
substance,measurement,value
thrombin activated from 10% human plasma on HUVEC monolayers,cleavage of the chromogenic thrombin substrate (absorbance at 405 nm),completely blocked the cleavage of the chromogenic thrombin substrate
